The source of these data is patent US6825164 (TRUSTEES OF COLUMBIA UNIVERSITY IN THE CITY OF NEW YORK, dated 2004).

B2: Mouse receptor for advanced glycation endproduct (RAGE) at the blood-brain barrier (receptor)
chain: GQNITARIGEPLVLSCKGAPKKPPQQLEWKLNTGRTEAWKVLSPQGGPWDSVAQILPNGSLLLPATGIVDEGTFRCRATNRRGKEVKSNYRVRVYQIPGKPEIVDPASELTASVPNKVGTCVSEGSYPAGTLSWHLDGKLLIPDGKETLVKEETRRHPETGLFTLRSELTVIPTQGGTTHPTFSCSFSLGLPRRRPLNTAPIQLRVREPGPPEGIQLLVEPEGGIVAPGGTVTLTCAISAQPPPQVHWIKDGAPLPLAPSPVLLLPEVGHADEGTYSCVATHPSHGPQESPPVSIRVTETGDEGPAEGSVGESGLGTLALALGILGGLGVVALLVGAILWRKRQPRREERKAPESQEDEEERAELNQSEEAEMPENGAGGP
notes: Endogenous RAGE on brain microvessels/endothelium of living mice (brain perfusion model); The mice in the experiments were of other strains; also called receptor for advanced glycosylation end products

The target in assay [1] is B2. Briefly: in vivo brain perfusion with 125I-Aβ, capillary-depletion, binding to brain microvessels. The protocol:
(§1) Injection of radioisotopes for transport studies. […] When the effects of different unlabeled molecular reagents were tested, those were injected 5 min prior to tracers injection and than simultaneously with radiolabled ligands. At predetermined times within 10 min mice were sacrificed by decapitation, and brain tissue prepared for radioactivity analysis. TCA and HPLC analysis as we described were used to determine molecular forms of uptake of radiolabeled Aβ by the BBB. Capillary-depletion technique was used to separate micravascular pellet from capillary-depleted brain to quantify in vivo binding to microvessels vs. transport into brain parenchyma, as we reported.

The target in assay [2] is T1, Aβ1-40 human form (synthetic amyloid-beta peptide 1-40) (human, UniProt P05067 672-711, radioiodinated with Na[125I] for the transport and binding studies).
T1 construct: domain: Aβ1-40; Stock solutions in DMSO to keep it monomeric; Aβ numbering 1-40 counts on the Aβ peptide, not on APP; also called human Aβ1-40; Amyloid β1-40 peptide
Described as above. How it is done: as §1

Ends that are not written are not given here.

B1: Aβ1-40 murine form (synthetic amyloid-beta peptide 1-40) (peptide, UniProt P12023 672-711, looked up)
peptide: DAEFGHDSGFEVRHQKLVFFAEDVGSNKGAIIGLMVGGVV
modifications: also: radioiodinated with Na[125I], position not given here
notes: domain: Aβ1-40; also called mouse Aβ1-40; murine Aβ1-40
On to B1, for which the binding result in assay [1] is recorded as “binds”.
For the molecule B2, the binding result in assay [2] is “binds”.
